# Results taken from patent publication US20200024330A1.
# B1: PGT-137 (antibody, V domains shown)
# VH: EVHLEESGPGLVRPSETLSLTCTASGGSIRGGEWGDSDYHWGWVRHSPEKGLEWIGSIHWRGTTHYNAPFRGRGRLSIDLSRNQFSLRLTSVTAEDTAVYYCVKHKYHDIVMVVPIAGWFDPWGQGLQVTVSS
# VL: EIMMTQSPAILSVSPGDRATLSCRASQSVKNNLAWYQKRPGQAPRLLIFDTSSRASGIPARFSGGGSGTEFTLTVNSMQSEDFATYYCQQYEEWPRTFGQGTKVEIK
# B2: PGT-136 (5329_C19; 5366_P21) human monoclonal anti-HIV antibody (antibody, V domains shown)
# VH: QLQLQESGPGLVKPSETLSLTCTVSGGSMRGTDWGENDFHYGWIRQSSAKGLEWIGSIHWRGRTTHYKTSFRSRATLSIDTSNNRFSLTFSFVTAADTAVYYCARHKYHDIFRVVPVAGWFDPWGQGLLVTVSS
# VL: EIVMTQSPPTLSVSPGETATLSCRASQNVKNNLAWYQLKPGQAPRLLIFDASSRAGGIPDRFSGSGYGTDFTLTVNSVQSEDFGDYFCQQYEEWPRTFGQGTKVDIK
# What was measured:
# [1] = biological target: JR-FL gp120 ΔV3 (HIV-1 (isolate JR-FL)); assay: ELISA on coated gp120; EC50 by nonlinear regression
# [2] = biological target: WT JR-FL gp120 (HIV-1 (isolate JR-FL)); assay: as above
# [3] = biological target: JR-FL gp120 ΔV1/ΔV2 (HIV-1 (isolate JR-FL)); assay: as above
# [4] = biological target: HIV-1 Env of isolate MGRM-C-026 (HIV-1); assay: cell-based or functional assay
# [5] = biological target: Env of the clade G HIV-1 pseudoviruses of the cross-clade 162-pseudovirus panel (n = 15); assay: cell-based or functional assay
# [6] = biological target: HIV-1 Env of isolate JR-CSF (HIV-1) (UniProt P20871); assay: cell-based or functional assay
# [7] = biological target: Env of the clade F HIV-1 pseudoviruses of the cross-clade 162-pseudovirus panel (n = 15); assay: cell-based or functional assay
# [8] = biological target: Env of the clade C HIV-1 pseudoviruses of the cross-clade 162-pseudovirus panel (n = 27); assay: cell-based or functional assay
# [9] = biological target: Env of the clade D HIV-1 pseudoviruses of the cross-clade 162-pseudovirus panel (n = 25); assay: cell-based or functional assay
# [10] = biological target: HIV-1 Env of isolate 93IN905 (HIV-1); assay: cell-based or functional assay
# [11] = biological target: Env of the clade B HIV-1 pseudoviruses of the cross-clade 162-pseudovirus panel (n = 31); assay: cell-based or functional assay
# [12] = biological target: Env of the clade A HIV-1 pseudoviruses of the cross-clade 162-pseudovirus panel (n = 26); assay: cell-based or functional assay
# [13] = biological target: HIV-1 JRFL envelope glycoprotein (Env) on pseudovirus (HIV-1); assay: cell-based or functional assay
# [14] = biological target: HIV-1 94UG103 envelope glycoprotein (Env) on pseudovirus (HIV-1); assay: cell-based or functional assay
# [15] = biological target: HIV-1 92BR020 envelope glycoprotein (Env) on pseudovirus (HIV-1); assay: cell-based or functional assay
# [16] = biological target: HIV-1 MGRM-AG-005 envelope glycoprotein (Env) on pseudovirus (HIV-1); assay: cell-based or functional assay
# [17] = biological target: HIV-1 MGRM-C-028 envelope glycoprotein (Env) on pseudovirus (HIV-1); assay: cell-based or functional assay
# [18] = biological target: HIV-1 93IN905 envelope glycoprotein (Env) on pseudovirus (HIV-1); assay: cell-based or functional assay
# [19] = biological target: HIV-1 NL43 envelope glycoprotein (Env) on pseudovirus (HIV-1); assay: cell-based or functional assay
# [20] = biological target: HIV-1 JRCSF envelope glycoprotein (Env) on pseudovirus (HIV-1) (UniProt P20871); assay: cell-based or functional assay
# [21] = biological target: HIV-1 93UG077 envelope glycoprotein (Env) on pseudovirus (HIV-1); assay: cell-based or functional assay
# [22] = biological target: HIV-1 MGRM-D-018 envelope glycoprotein (Env) on pseudovirus (HIV-1); assay: cell-based or functional assay
# [23] = biological target: HIV-1 APV13 envelope glycoprotein (Env) on pseudovirus (HIV-1); assay: cell-based or functional assay
# [24] = biological target: HIV-1 92UG024 envelope glycoprotein (Env) on pseudovirus (HIV-1); assay: cell-based or functional assay
# [25] = biological target: HIV-1 APV6 envelope glycoprotein (Env) on pseudovirus (HIV-1); assay: cell-based or functional assay
# [26] = biological target: HIV-1 MGRM-C-026 envelope glycoprotein (Env) on pseudovirus (HIV-1); assay: cell-based or functional assay
# [27] = biological target: HIV-1 92UG005 envelope glycoprotein (Env) on pseudovirus (HIV-1); assay: cell-based or functional assay
# [28] = biological target: HIV-1 92RW020 envelope glycoprotein (Env) on pseudovirus (HIV-1); assay: cell-based or functional assay
# [29] = biological target: HIV-1 MGRM-D-001 envelope glycoprotein (Env) on pseudovirus (HIV-1); assay: cell-based or functional assay
# [30] = biological target: HIV-1 APV17 envelope glycoprotein (Env) on pseudovirus (HIV-1); assay: cell-based or functional assay
# [31] = biological target: aMLV envelope protein on pseudovirus (negative control virus); assay: cell-based or functional assay
# [32] = biological target: HIV-1 MGRM-A-010 envelope glycoprotein (Env) on pseudovirus (HIV-1); assay: cell-based or functional assay
# [33] = biological target: HIV-1 MGRM-C-027 envelope glycoprotein (Env) on pseudovirus (HIV-1); assay: cell-based or functional assay
# [34] = biological target: HIV-1 CMU02 envelope glycoprotein (Env) on pseudovirus (HIV-1); assay: cell-based or functional assay
# [35] = biological target: HIV-1 92TH021 envelope glycoprotein (Env) on pseudovirus (HIV-1); assay: cell-based or functional assay
binder,measurement,setting,value
B1,EC50,[1],0.1 µg/mL
same,EC50,[2],0.1 µg/mL
same,EC50,[3],0.2 µg/mL
same,Primary Neutralization Index (B cell culture well 5345 I1),[4],11.3
same,Median IC50 against viruses neutralized with an IC50 <50 µg/ml,[5],0.23 µg/mL
same,Primary Neutralization Index (B cell culture well 5345 I1),[6],1.1
same,Median IC50 against viruses neutralized with an IC50 <50 µg/ml,[7],6.23 µg/mL
same,Median IC50 against viruses neutralized with an IC50 <50 µg/ml,[8],0.23 µg/mL
same,Median IC50 against viruses neutralized with an IC50 <50 µg/ml,[9],6.3 µg/mL
same,Primary Neutralization Index (B cell culture well 5345 I1),[10],3.3
same,Median IC50 against viruses neutralized with an IC50 <50 µg/ml,[11],8.55 µg/mL
same,Median IC50 against viruses neutralized with an IC50 <50 µg/ml,[12],0.72 µg/mL
B2,neutralization IC50,[13],> 10 µg/mL
same,neutralization IC80,[13],> 10 µg/mL
same,neutralization IC90,[13],> 10 µg/mL
same,neutralization IC95,[13],> 10 µg/mL
same,neutralization IC50,[14],> 10 µg/mL
same,neutralization IC80,[14],> 10 µg/mL
same,neutralization IC90,[14],> 10 µg/mL
same,neutralization IC95,[14],> 10 µg/mL
same,neutralization IC50,[15],> 10 µg/mL
same,neutralization IC80,[15],> 10 µg/mL
same,neutralization IC90,[15],> 10 µg/mL
same,neutralization IC95,[15],> 10 µg/mL
same,neutralization IC50,[16],> 10 µg/mL
same,neutralization IC80,[16],> 10 µg/mL
same,neutralization IC90,[16],> 10 µg/mL
same,neutralization IC95,[16],> 10 µg/mL
same,neutralization IC50,[17],> 10 µg/mL
same,neutralization IC80,[17],> 10 µg/mL
same,neutralization IC90,[17],> 10 µg/mL
same,neutralization IC95,[17],> 10 µg/mL
same,neutralization IC50,[18],0.0135 µg/mL
same,neutralization IC80,[18],0.0623 µg/mL
same,neutralization IC90,[18],0.156 µg/mL
same,neutralization IC95,[18],0.379 µg/mL
same,neutralization IC50,[19],> 10 µg/mL
same,neutralization IC80,[19],> 10 µg/mL
same,neutralization IC90,[19],> 10 µg/mL
same,neutralization IC95,[19],> 10 µg/mL
same,neutralization IC50,[20],> 10 µg/mL
same,neutralization IC80,[20],> 10 µg/mL
same,neutralization IC90,[20],> 10 µg/mL
same,neutralization IC95,[20],> 10 µg/mL
same,neutralization IC50,[21],> 10 µg/mL
same,neutralization IC80,[21],> 10 µg/mL
same,neutralization IC90,[21],> 10 µg/mL
same,neutralization IC95,[21],> 10 µg/mL
same,neutralization IC50,[22],> 10 µg/mL
same,neutralization IC80,[22],> 10 µg/mL
same,neutralization IC90,[22],> 10 µg/mL
same,neutralization IC95,[22],> 10 µg/mL
same,neutralization IC50,[23],> 10 µg/mL
same,neutralization IC80,[23],> 10 µg/mL
same,neutralization IC90,[23],> 10 µg/mL
same,neutralization IC95,[23],> 10 µg/mL
same,neutralization IC50,[24],0.0915 µg/mL
same,neutralization IC80,[24],0.619 µg/mL
same,neutralization IC90,[24],1.96 µg/mL
same,neutralization IC95,[24],5.97 µg/mL
same,neutralization IC50,[25],> 10 µg/mL
same,neutralization IC80,[25],> 10 µg/mL
same,neutralization IC90,[25],> 10 µg/mL
same,neutralization IC95,[25],> 10 µg/mL
same,neutralization IC50,[26],0.0065 µg/mL
same,neutralization IC80,[26],0.0285 µg/mL
same,neutralization IC90,[26],0.0687 µg/mL
same,neutralization IC95,[26],0.159 µg/mL
same,neutralization IC50,[27],> 10 µg/mL
same,neutralization IC80,[27],> 10 µg/mL
same,neutralization IC90,[27],> 10 µg/mL
same,neutralization IC95,[27],> 10 µg/mL
same,neutralization IC50,[28],0.738 µg/mL
same,neutralization IC80,[28],> 10 µg/mL
same,neutralization IC90,[28],> 10 µg/mL
same,neutralization IC95,[28],> 10 µg/mL
same,neutralization IC50,[29],> 10 µg/mL
same,neutralization IC80,[29],> 10 µg/mL
same,neutralization IC90,[29],> 10 µg/mL
same,neutralization IC95,[29],> 10 µg/mL
same,neutralization IC50,[30],> 10 µg/mL
same,neutralization IC80,[30],> 10 µg/mL
same,neutralization IC90,[30],> 10 µg/mL
same,neutralization IC95,[30],> 10 µg/mL
same,neutralization IC50,[31],> 10 µg/mL
same,neutralization IC80,[31],> 10 µg/mL
same,neutralization IC90,[31],> 10 µg/mL
same,neutralization IC95,[31],> 10 µg/mL
same,neutralization IC50,[32],> 10 µg/mL
same,neutralization IC80,[32],> 10 µg/mL
same,neutralization IC90,[32],> 10 µg/mL
same,neutralization IC95,[32],> 10 µg/mL
same,neutralization IC50,[33],> 10 µg/mL
same,neutralization IC80,[33],> 10 µg/mL
same,neutralization IC90,[33],> 10 µg/mL
same,neutralization IC95,[33],> 10 µg/mL
same,neutralization IC50,[34],> 10 µg/mL
same,neutralization IC80,[34],> 10 µg/mL
same,neutralization IC90,[34],> 10 µg/mL
same,neutralization IC95,[34],> 10 µg/mL
same,neutralization IC50,[35],> 10 µg/mL
same,neutralization IC80,[35],> 10 µg/mL
same,neutralization IC90,[35],> 10 µg/mL
same,neutralization IC95,[35],> 10 µg/mL
